This passage reports percent of the total protein that is dimer results from paper PMC5823869.

The target in the experiment is YAP2L/TAZ in cells. Kind of experiment: non-reducing SDS-PAGE with immunoblot; cell lysates (15 µg of transfected HEK293; 30 µg of H460 for endogenous TAZ) in SDS sample buffer without DTT, 3 min at 60 °C; blot with anti-FLAG, anti-HA or anti-TAZ; series with increasing DTT run beside.

YAP2L/TAZ in cells displayed a percent of the total protein that is dimer of 20 to 30%.
